# Data from patent EP4725969A1 (Latticon (Suzhou) Biopharmaceuticals Co., Ltd., dated 2024).
# Target: T1, recombinant human HER2 extracellular domain protein (human, UniProt P04626 23-652)
# T1 construct: range 23-652; Range is printed for the immunogen/panning protein; also called ErbB2; recombinant HER2 protein
# Experiment: BLI, Protein A capture
Kd,koff,kon,Binder
8.33 nM,0.000718 s⁻¹,86200 M⁻¹ s⁻¹,"Hu2117HK-Mu01 (Fc fusion, scFv-hIgG1 Fc; not shown: human IgG1 Fc) scFv: EVQLVESGGGLVQPGGSLRLSCAASGFTYSSYGMSWVRQAPGKGLEWVASISGGGSYTKYPDSVKGRFTISRDNSKNTLYLQMNSLRAEDTAVYYCARDYAGFFDVWGQGTLVTVSSGGGGSGGGGSGGGGSDIQMTQSPSSLSASVGDRVTITCRSSQSLVHSNGNTYLHWYQQKPGKSPKLLIYKVSNRFSGVPSRFSGSGSGTDFTLTISSLQPEDFATYFCSQSTHVPYTFGQGTKVEIK"
8.18 nM,,82600 M⁻¹ s⁻¹,"Hu2117HK-Mu06 (Fc fusion, scFv-hIgG1 Fc; not shown: human IgG1 Fc) scFv: EVQLVESGGGLVQPGGSLRLSCAASGFTYSSYGMSWVRQAPGKGLEWVSSISGGGSYTKYPDSVKGRFTISRDNSKNTLYLQMNSLRAEDTAVYYCARDYAGFFDVWGQGTLVTVSSGGGGSGGGGSGGGGSDIQMTQSPSSLSASVGDRVTITCRSSQSLVHSNGNTYLHWYQQKPGKAPKLLIYKVSNRFSGVPSRFSGSGSGTDFTLTISSLQPEDFATYFCSQSTHVPYTFGQGTKVEIK"
8.69 nM,0.00071 s⁻¹,81600 M⁻¹ s⁻¹,"Hu2117HK-Mu03 (Fc fusion, scFv-hIgG1 Fc; not shown: human IgG1 Fc) scFv: EVQLVESGGGLVQPGGSLRLSCAASGFTYSSYGMSWVRQAPGKGLEWVASISGGGSYTKYPDSVKGRFTISRDNSKNTLYLQMNSLRAEDTAVYYCARDYAGFFDVWGQGTLVTVSSGGGGSGGGGSGGGGSDVQMTQSPSSLSASVGDRVTITCRSSQSLVHSNGNTYLHWYQQKPGKAPKLLIYKVSNRFSGVPSRFSGSGSGTDFTLTISSLQPEDFATYFCSQSTHVPYTFGQGTKVEIK"
9.88 nM,0.000895 s⁻¹,90600 M⁻¹ s⁻¹,"Hu2117HK-Mu04 (Fc fusion, scFv-hIgG1 Fc; not shown: human IgG1 Fc) scFv: EVQLVESGGGLVQPGGSLRLSCAASGFTYSSYGMSWVRQAPGKGLEWVASISGGGSYTKYPDSVKGRFTISRDNSKNTLYLQMNSLRAEDTAVYYCARDYAGFFDVWGQGTLVTVSSGGGGSGGGGSGGGGSDIQLTQSPSSLSASVGDRVTITCRSSQSLVHSNGNTYLHWYQQKPGKAPKLLIYKVSNRFSGVPSRFSGSGSGTDFTLTISSLQPEDFATYFCSQSTHVPYTFGQGTKVEIK"
6.76 nM,0.000529 s⁻¹,78300 M⁻¹ s⁻¹,"Hu2117HK-Mu05 (Fc fusion, scFv-hIgG1 Fc; not shown: human IgG1 Fc) scFv: EVQLVESGGGLVQPGGSLRLSCAASGFTFSSYGMSWVRQAPGKGLEWVASISGGGSYTKYPDSVKGRFTISRDNSKNTLYLQMNSLRAEDTAVYYCARDYAGFFDVWGQGTLVTVSSGGGGSGGGGSGGGGSDIQMTQSPSSLSASVGDRVTITCRSSQSLVHSNGNTYLHWYQQKPGKAPKLLIYKVSNRFSGVPSRFSGSGSGTDFTLTISSLQPEDFATYFCSQSTHVPYTFGQGTKVEIK"
8.32 nM,0.000737 s⁻¹,88600 M⁻¹ s⁻¹,"Hu2117HK-Mu02 (Fc fusion, scFv-hIgG1 Fc; not shown: human IgG1 Fc) scFv: EVQLVESGGGLVQPGGSLRLSCAASGFTYSSYGMSWVRQAPGKGLEWVASISGGGSYTKYPDSVKGRFTISRDNSKNTLYLQMNSLRAEDTAVYYCARDYAGFFDVWGQGTLVTVSSGGGGSGGGGSGGGGSDIQMTQSPSSLSASVGDRVTITCRSSQSLVHSNGNTYLHWYQQKPGKAPKLLIYKVSNRFSGVPSRFSGSGSGTDFTLTISSLQPEDFAVYFCSQSTHVPYTFGQGTKVEIK"
11.7 nM,0.000465 s⁻¹,39800 M⁻¹ s⁻¹,"Hu2117HK-Mu07 (Fc fusion, name in Kabat numbering, scFv-hIgG1 Fc; not shown: human IgG1 Fc) scFv: EVQLVESGGGLVQPGGSLRLSCAASGFTYSSYGMSWVRQAPGKGLEWVASISGGGSYTYYPDSVKGRFTISRDNSKNTLYLQMNSLRAEDTAVYYCARDYAGFFDVWGQGTLVTVSSGGGGSGGGGSGGGGSDIQMTQSPSSLSASVGDRVTITCRSSQSLVHSNGNTYLHWYQQKPGKAPKLLIYKVSNRFSGVPSRFSGSGSGTDFTLTISSLQPEDFATYFCSQSTHVPYTFGQGTKVEIK"

# Target: T1, recombinant human HER2 extracellular …
# Experiment: BLI, Protein A capture
# Remark: another data set of the same source
Kd,koff,kon,Binder
5.11 nM,0.00049 s⁻¹,95900 M⁻¹ s⁻¹,"2126-Hu-L09 (antibody, IgG1, V domains shown, IgG1/Cκ) VH: QVQLVQSGSELKKPGASVKVSCKASGYTFTDYSMHWVRQAPGQGLEWMGWINTETGEPTYADDFKGRFVFSLDTSVSTAYLQISSLKAEDTAVYFCVRVGRYDYAMDYWGQGTTVTVSS VL: DIQMTQSPSSLSASVGDRVTITCKASQDVYTAVAWYQQKPGKAPKLLINSASKRYTGVPSRFSGSGSGTDFTLTISSLQPEDFATYYCQQHYSTPPTFGGGTKVEIK"
6.25 nM,0.000651 s⁻¹,104000 M⁻¹ s⁻¹,"2126-Hu-L11 (antibody, IgG1, V domains shown, IgG1/Cκ) VH: QVQLVQSGSELKKPGASVKVSCKASGYTFTDYSMHWVRQAPGQGLEWMGWINTETGEPTYADDFKGRFVFSLDTSVSTAYLQISSLKAEDTAVYFCVRVGRYDYAMDYWGQGTTVTVSS VL: DIQMTQSPSSLSASVGDRVTITCKASQDVYTAVAWYQQKPGKAPKLLINSASQRYTGVPSRFSGSGSGTDFTLTISSLQPEDFATYYCQQHYSTPPTFGGGTKVEIK"
5.38 nM,0.000558 s⁻¹,104000 M⁻¹ s⁻¹,"2126-Hu-L10 (antibody, IgG1, V domains shown, IgG1/Cκ) VH: QVQLVQSGSELKKPGASVKVSCKASGYTFTDYSMHWVRQAPGQGLEWMGWINTETGEPTYADDFKGRFVFSLDTSVSTAYLQISSLKAEDTAVYFCVRVGRYDYAMDYWGQGTTVTVSS VL: DIQMTQSPSSLSASVGDRVTITCKASQDVYTAVAWYQQKPGKAPKLLINSASNRYTGVPSRFSGSGSGTDFTLTISSLQPEDFATYYCQQHYSTPPTFGGGTKVEIK"
1.77 nM,0.000193 s⁻¹,109000 M⁻¹ s⁻¹,"2126-Hu-L21 (antibody, IgG1, V domains shown, IgG1/Cκ) VH: QVQLVQSGSELKKPGASVKVSCKASGYTFTDYSMHWVRQAPGQGLEWMGWINTETGEPTYADDFKGRFVFSLDTSVSTAYLQISSLKAEDTAVYFCVRVGRYDYAMDYWGQGTTVTVSS VL: DIQMTQSPSSLSASVGDRVTITCKASQDVYTAVAWYQQKPGKAPKLLINSASYRYTGVPSRFSGSGSGTDFTLTISSLQPEDFATYYCQQYYSTPPTFGGGTKVEIK"
5.34 nM,0.000531 s⁻¹,99500 M⁻¹ s⁻¹,"2126-Hu-L13 (antibody, IgG1, V domains shown, IgG1/Cκ) VH: QVQLVQSGSELKKPGASVKVSCKASGYTFTDYSMHWVRQAPGQGLEWMGWINTETGEPTYADDFKGRFVFSLDTSVSTAYLQISSLKAEDTAVYFCVRVGRYDYAMDYWGQGTTVTVSS VL: DIQMTQSPSSLSASVGDRVTITCKASQDVYTAVAWYQQKPGKAPKLLINSASTRYTGVPSRFSGSGSGTDFTLTISSLQPEDFATYYCQQHYSTPPTFGGGTKVEIK"
8.29 nM,0.000906 s⁻¹,109000 M⁻¹ s⁻¹,"2126-Hu-L15 (antibody, IgG1, V domains shown, IgG1/Cκ) VH: QVQLVQSGSELKKPGASVKVSCKASGYTFTDYSMHWVRQAPGQGLEWMGWINTETGEPTYADDFKGRFVFSLDTSVSTAYLQISSLKAEDTAVYFCVRVGRYDYAMDYWGQGTTVTVSS VL: DIQMTQSPSSLSASVGDRVTITCKASQDVYTAVAWYQQKPGKAPKLLINSASYRETGVPSRFSGSGSGTDFTLTISSLQPEDFATYYCQQHYSTPPTFGGGTKVEIK"
8.83 nM,0.000912 s⁻¹,103000 M⁻¹ s⁻¹,"2126-Hu-L18 (antibody, IgG1, V domains shown, IgG1/Cκ) VH: QVQLVQSGSELKKPGASVKVSCKASGYTFTDYSMHWVRQAPGQGLEWMGWINTETGEPTYADDFKGRFVFSLDTSVSTAYLQISSLKAEDTAVYFCVRVGRYDYAMDYWGQGTTVTVSS VL: DIQMTQSPSSLSASVGDRVTITCKASQDVYTAVAWYQQKPGKAPKLLINSASYRYTGVPSRFSGSGSGTDFTLTISSLQPEDFATYYCQQSYSTPPTFGGGTKVEIK"
8.07 nM,0.00085 s⁻¹,105000 M⁻¹ s⁻¹,"2126-Hu-L19 (antibody, IgG1, V domains shown, IgG1/Cκ) VH: QVQLVQSGSELKKPGASVKVSCKASGYTFTDYSMHWVRQAPGQGLEWMGWINTETGEPTYADDFKGRFVFSLDTSVSTAYLQISSLKAEDTAVYFCVRVGRYDYAMDYWGQGTTVTVSS VL: DIQMTQSPSSLSASVGDRVTITCKASQDVYTAVAWYQQKPGKAPKLLINSASYRYTGVPSRFSGSGSGTDFTLTISSLQPEDFATYYCQQAYSTPPTFGGGTKVEIK"
4.38 nM,0.000464 s⁻¹,106000 M⁻¹ s⁻¹,"2126-Hu-L16 (antibody, IgG1, V domains shown, IgG1/Cκ) VH: QVQLVQSGSELKKPGASVKVSCKASGYTFTDYSMHWVRQAPGQGLEWMGWINTETGEPTYADDFKGRFVFSLDTSVSTAYLQISSLKAEDTAVYFCVRVGRYDYAMDYWGQGTTVTVSS VL: DIQMTQSPSSLSASVGDRVTITCKASQDVYTAVAWYQQKPGKAPKLLINSASYRPTGVPSRFSGSGSGTDFTLTISSLQPEDFATYYCQQHYSTPPTFGGGTKVEIK"
7.91 nM,0.000786 s⁻¹,99300 M⁻¹ s⁻¹,"2126-Hu-L17 (antibody, IgG1, V domains shown, IgG1/Cκ) VH: QVQLVQSGSELKKPGASVKVSCKASGYTFTDYSMHWVRQAPGQGLEWMGWINTETGEPTYADDFKGRFVFSLDTSVSTAYLQISSLKAEDTAVYFCVRVGRYDYAMDYWGQGTTVTVSS VL: DIQMTQSPSSLSASVGDRVTITCKASQDVYTAVAWYQQKPGKAPKLLINSASYRQTGVPSRFSGSGSGTDFTLTISSLQPEDFATYYCQQHYSTPPTFGGGTKVEIK"
6.13 nM,0.000619 s⁻¹,101000 M⁻¹ s⁻¹,"2126-Hu-L12 (antibody, IgG1, V domains shown, IgG1/Cκ) VH: QVQLVQSGSELKKPGASVKVSCKASGYTFTDYSMHWVRQAPGQGLEWMGWINTETGEPTYADDFKGRFVFSLDTSVSTAYLQISSLKAEDTAVYFCVRVGRYDYAMDYWGQGTTVTVSS VL: DIQMTQSPSSLSASVGDRVTITCKASQDVYTAVAWYQQKPGKAPKLLINSASSRYTGVPSRFSGSGSGTDFTLTISSLQPEDFATYYCQQHYSTPPTFGGGTKVEIK"
6.48 nM,0.000666 s⁻¹,103000 M⁻¹ s⁻¹,"2126-Hu-L14 (antibody, IgG1, V domains shown, IgG1/Cκ) VH: QVQLVQSGSELKKPGASVKVSCKASGYTFTDYSMHWVRQAPGQGLEWMGWINTETGEPTYADDFKGRFVFSLDTSVSTAYLQISSLKAEDTAVYFCVRVGRYDYAMDYWGQGTTVTVSS VL: DIQMTQSPSSLSASVGDRVTITCKASQDVYTAVAWYQQKPGKAPKLLINSASYRATGVPSRFSGSGSGTDFTLTISSLQPEDFATYYCQQHYSTPPTFGGGTKVEIK"
